Experiment: protease stability score; higher = more stable; yeast display proteolysis, trypsin and chymotrypsin;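 note: relative to predicted unfolded state with 0 unfolded-like and 1 meaning tenfold more protease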

| Sequence | protease stability score |
| --- | --- |
| SELEKLAEEMLELFIEIFLTGDWRTFLRLADPHTRLNVDGKNNHGREEVRRHLEEELRQMRWHDVKIHDFDVIGEKAHVRLRVDGIINGRRIDFEMELEITVVNGVIKDVRVRRR | 1.48 |
| SELEKLLLDIARKLIHSYLTGDWRTFQELADPNVKIRVVVGDKEERIHGRENIIEWLERERKQYDHIEVRIDDERTIGDKLHIDGTFIIRVDGKTRFSRVEIHLLIIDGKVTSLEFHEK | 1.07 |
| SELEKLSHELARLLIENWETGDWKRFIDLIDPHAKLHIGDKDHIGREEITRFLKEVWHRFDHIEMRIHHIKVIGNYAHSDGEMIININGQERRHDVEIIVVVVNGVVHSVEIHIE | 1.9 |
| SELEKYSKLMLDLILHSRLTGDEEHHEKLMDPNVRIEIGDKELHGRELAVKWMSHWRLEELRVRHIHNQGDKINVDVEEVETVDGVRIRFRSELIILKVDGQWLNHSIITR | 1.16 |
| SELEQELKHFVRLMKEIMRTGNWDLFERYADPNVRLEINGRDYIGRELASESLRHFVEEWGLDRVDVRVEHSSFQGDKAHSKINTDFNGQERTVHYDVLKVDGRWIVQRVRIE | 2.06 |
| SELEQMWREAKETIEKINKTGDPRSLLENADPTVRTDYGEKDYHGREEFKKFLEWLGIKHIKDVRFRDFEVQGDKIIHDSEVDVEVGDKEFRIKSIVIALKVDGRWLITRLVFK | 1.9 |
| SELERDAEMAFKIYKHNIETGNEEELDKLVDPNVRLEAENHSTHGREDWYNLMRHFGVKHTDVKDFRIQGDKIHLHGVLHFNGRTFKITLYVHKFDGRWHIKSVEVH | 0.364 |
| SELERHAKEIAKIFSEVESTGDEDRMWELVDPDVRLHVGDKEFHGMEWVITLIREHLRHIRLKHVEITHIRVIDGRVDVDTRIHGIINGRELVTKSRIIIDKINGRWLVSSLKYE | 1.15 |
| SELERLIMEMLHLLIELWLTGDEETLSKLIDPNTRLIVIQGDKHIIVHGRELVLHIMRRIREEIRFEDSRIRSMDAQGNKASINEEMHFRIGDKEVRFEREVEVWVIDGKLHSLVIRIK | 0.871 |
| SELERQIERANRELVDIIYTGDEHLVDRMLDPRTLLTVGDKHTIGREEMIEWFKHHIREMRIRHSDTKDPHFINGVIDSHLYLDMEFDGRRFISRTRLIVLKIDGRWHIERITII | 0.687 |
| SELHEDAEEIAKQFSRAWTTGDFEELDKLFDPNARIEYGDYEVHGRHIVSKFLRQIRIKEVRFIVRRVEHYDGRIRLWGELTLHGNINGRDFDLHTKSDLLVIKIDGRWVVEQYIIR | 1.47 |
| SELHEEAEELTEKIIRILLTGNEHFFSELVDPDVRTNVDGKELHGREEALRKFEEMRRKLGYDRVRVELRKYTVFDGRVEVVTELNVNGRRLEYIWRMHKVDGRWSLHIWEIR | 2.65 |
| SELHEEIHKMVQEFLELFLTGDFHRIKQLMDPNVKLIYGDKLFHGRENVEKLHEELRWRYKNATIHVDLREITIFENRAVTDTSIEFDVNGKHISHETKVIIEKIDGQWVIKSIYIN | 2.13 |
| SELHEEVRHIAEQWVKSWITGDEHLLQKLADPHVRFKIGDKSNHGRENVIKEIRRLEEEHGAEERIIITHVRVVGDKYELHGTYELRIGDKHETRHLHIEIWVVNGVVKEIDIQID | 1.07 |
| SELHEKLKRDMDILEELLLTGDWEKLLKYIDPHARLEIGDKEVHGREILSEVFRDVFERIKNARIHIEHSEAINGRFDIHSEWIVNGKNRRVHIETVVINGRVDKLYFEIRHR | 1.05 |
| SELHKFAEELSRRWFEMVLTGDEDSLNELADPNVRNDVNGRELIGRESFAKWVKELRIEDVRHKRSRIEVQGDKMIIHMDIESVVTIDGVRRDQRYEIIIISRKVNGRWLVHSVEFRVE | 1.18 |
| SELHKHVKHLAEHFWHLLETGDWEKMTKNADPNDRLDIHIGDKDIHNHGRERSLKTWTELEREMGIDHLTLRHRDLQGDKVIIHTESVFDGRHVKVEIIVVVINGRLKRVEVRFE | 0.767 |
| SELIKVSRHAMEILVHSWLTGDWERSEELVDPHARTQYGDKHVHGMELFEEIFKEELDRVKGMRLEIIIRRVDLQGNKAEVDGEFRNHVNGVDVRRRMHVELVVVNGVVESTSIRIQ | 0.453 |
| SELIRASETMMKAIADSEETGDWRLLRELFDPHVRIEIGDKKYHGWKYLKHFMEELRIESRTELEHVDTFDGKVRVEGTLTTDLRVNGQEHTINLDIRSIIVKIDGRWIIHKVKIH | 1.14 |
| SELKEEVDRWAKRFIHAVETGDEDTILKFMDPHVKSSVGEKVHHGREFLIIIWRELRIRHFTVHHIRVDEDHLIIHMEWQGHVNGKEIRLEVDLFIRKVDGVWIMKHIEIR | 2.03 |
| SELKEILRKAIELLLRLWVTGDEEELLELFDPNVKLVIGDKIFIGREEFEKVSRHARVKRSDINDFRVQGDKITYDTRMDGHVNGKDIDTTVDIIAVKIDGRWFNHSIIVH | -0.093 |
| SELKESATDIMRIYIEAWLTGDFEEITRLADPRMRVINDFNGRTQVNHGRELFRETLKHWRIKHVHIDDMRSFEGRSESHGTVHGQFNGVEDEVRFEVRMVVVDGVLHSMTIIFK | 1.18 |
| SELKNWARIIAERVTDELNTGNEHRLRELFDPNVKIRIDGRDFHGMDTLRRFFEELRITHTHWEHKDMHLIGDKALLHGTLKINILQGDKTHETTFDVRIFVIKVNGRWSYEHMEID | 1.22 |
| SELKQAIDDLIRRFEHIYHTGNEEIWERLADPNTRIDIDGQEIIGREQATRERREEMKKLGVERVEVELRLRNVEVVGNKLHLDGELILRYGDKTVVIDSKINLQKINGRWVIREEIYH | 1.04 |
| SELNEISEEAVEWFRKVLLTGNEDLLLNLADPNVRYEVGDKRRVGRESMIEQIQHFLHEMGINHIHSVHIRDVRIQGDYIEVDSELETTVNGQKMYIHMFLRARKIDGKWILDRIYVH | 1.02 |

| Sequence | protease stability score |
| --- | --- |
| SELNEKLKHLIELHWRVLETGDEHMMTRLLDPHARLEYGDKELHGREEVTHWHYEILEKVKNLQIHLSDYRIVNGQIHLHVVENVNGVTTRRFINIEKIDGRWHDREIRIE | 0.757 |
| SELNHSVRRAIEIFERVSKTGDEREIRDLADPNVKLDFDGREHHGWEWFVRFMKEIRIKDHRIRDVELIGEFVIIHGELEMEINGVDIRTEVEFYVFKINGKWYLKRLIIR | 1.92 |
| SELSEDLDMYIKIFLRHTETGDEESVRDFADPHAKLEIGDKTFHGRETFLDWFLDLRDRIPNITVRIHEVRIIGDKIHIDLEIIIGEKRTRIHLKIFKVDGVWVLKSLRIN | 1.58 |
| SEMDEASKLALKLLEHMVRTGDEHLSEHLVDPHARLFQGDKVEWGRERMTRQLHEWRVRDFKLKRVHVYNGRIEVDGVLNGTVDGVDENRDVRLIITKIDGQWLIKSVIIE | 0.474 |
| SEMDENIHEALKEEMHAWVTGDFDKIEHLLDPNTRVEQGEFIYHGRFFVEFVRRRVDHVFWHHVEIRHIENVDGRMIIDGIVDFEETAENHRHRHTIRTIIYLEKIDGKWYIRSLEVK | 0.874 |
| SEMEDIAEEWAELILHLWHTGDEDKLWKLADPNTREHVNGRNLHGREEIVRIIVHEMVEMRIKFRPHDVRVQGDKVIIDGIKEIHIDGKEIRIRIEIVIVVINGRYHSSELTVH | 1.04 |
| SEMEEESHKVVEYATHVFATGDEHLMRKNFDPDVKLDYNGKHFHGWEEFVKLMQTLREKYGVKHVKRVEIEDIRIIGNKVEVDTRVVQNVDGVPFELEITLILIKIDGKWRNHSSRIR | 0.037 |
| SEMEEEVRRAMKSFIKDLETGNEKSNHENVDPHARLLINGQEFHGMEHVSRWINKAGIDHFEIDEFRIIGNKIRIDGTITFNGQQHKVRIDVVKVDGRWLVKSLEII | 1.29 |
| SEMEEHAERVWRIMLTLLLTGDEEKFNHLADPNTRLIIIIGDKELHFHGRHEISNYLHRYLREIRIDHFHEHSITVQGNWVHTDGIMLGRFDGKRHEIRVHIHLIVIDGRIKEIYLENR | 1.64 |
| SEMEETAKTVYKRWFDMLHTGDEELLTRFMDPHVRVQQGDKEIVGWELVVTHNRHLRYEDSHLKDIETQGDKVIIRGELVLTIGDKRFTIDVEILAQKVDGRWILKSVRFS | 0.035 |
| SEMEETLKKAFHNLLEHIKTGDEQLLKEFLDPNTKVEVDGVELIGMEKFIELMREIEKRVDVIRSLELEHWEVVGNKIRMEVRLNIEINGKDTFTRTHLIALKVNGRWILHSVRIG | 1.75 |
| SEMEEVAVREWEILVKALRTGDERIISELMDPHARVDYNGRQLHGREEVKKFLEEIRIVTHHTEIKDHEYQGNKLIMHGHVDVENEYGDKTERIDTHIHIILRKVNGRWFITEIDIR | 2.53 |
| SEMEEVYKRWVDLFRHAMDTGNEDLHLHLLDPHVRININGVELIGRDDDRDHLERLRKELGVSRFEMRVRIRDVDIQGDKIRSETEFTVIFNGREIIIKTRLILEKVNGRWILRSLEYN | 1.39 |
| SEMEHNLLEFIEHLLRNWRTGDEDREHELADPHYRIDVNGVELHGMEYLLEMFRRLGIDHMEFELKRSTVVGDFAIVDGNLQFHVDGKWERRKVKMVNKKVDGRWHHTQFSVN | 1.5 |
| SEMEHQSRKILEDTLRQWLTGDWHSLHELMDPNTKLDVGDKHFHGREAVKVFLERADHVKDLQIDHMRIQGDKIETDVHMHVTVGDKEKDVEVELIVLKVNGKWLLRSASIK | 1.22 |
| SEMEKLYRDLYKRFLDNWVTGDEEKLIKYADPNTRLHVGDKHHHGMEHISHLFLEFVYRADHHEYRIDRLEVVDGVAISDGRMREEIGEFELRFDVEIRIVIVNGRLKWIEVSFK | 0.839 |
| SEMENLAREALRIIFHNVLTGDEEEFIRMADPNVRFDINGVEYHGWKRVLQELQRFKGLRIHHIHLEDMDNQGDKIIIYSKLEVHYNGVHTELTVEFISEKVNGRWILRMVVFH | 2.47 |
| SEMHEATEHLLKLWVHIFETGNEKWFNKLADPDYRSRILYGDKELKSHGRENVVEVLYRWLKHFGFDHVRLEDEHIQGNKVHLHFRVQVNGRHHELDLNIDMVNGKIRHVEVILH | 1.5 |
| SEMHEDAEEVLRRISHYLNTGDEDSFLEMADPHTRIRVGNKEYIGREWSLVLIEKVKGARQEIRIELKDVNLVNGRLEVDGRFRLHYRFNGKTVDEHRNVIVYSYKFNGRWEIKSEQVD | 1.49 |
| SENDELNEKLVRDWIISLHTGDEETLRDLLDPHVKVEVGEKRMHGREEYVTHLLHHARRADHIRIEIHQVHNQGDKVNIDGTLHIDVNGKHQHHRVTIIASKVNGKWLIESINIH | 1.03 |
| SENEETAEDVIELVIEAWVTGDEDLFLSLLDPRVRLEVNGVHHHGRERVLEEIIKNLETLGVDHIEIRIREIKLIGEWVEIHGELIYRYNGVHERRDVEIIAFKFNGRWVLRSLRVR | 1.82 |
| SENEKILHDLSKELFDIYHTGNEERWSEMADPHVKIDVNGQEYHGREEVEEELEHWRRRFKNARYEIHKIHVFDGRLLIEGHINIDGKKRQIHFRIHVVNGKIKEMRIEIR | 1.82 |
| SENEKRMRELAEIILISWWTGDEDTLKDLADPRTRVNIDGVDLIGMELTSEFLERHLREMRIHSIELESITVIDGQAHIHLEVDTVVNGVRIRTKIHILVVTVDGRLKSEHYHRR | 0.446 |
| SENHKLSREALEHFLHLVHTGDFEKIYHMLDPNVKSEAENHHDHGMRDVVHLWRTMGIDHIRVHEVRIFENHLDVDMISIVGDKHFRLNIHIRKVNGRWQTELVRVN | 1.8 |
| SENHRNLLEWARIALEALITGDWKMLLDLLDPNVRFIFNGVHLHGMEHVFHRMTREIKEIRIKFEVHDMRSIGEKVEMDTRRHVEVNGVETTIDTRVHVVVIDGVIHEIRIEHR | 1.1 |
